In patent US20100055739 one finds activity (transformants per ug DNA) data, which are given here for 2 substances.

This series has as its system T1, Bli1904II restriction endonuclease (Bacillus licheniformis).
T1 sequence: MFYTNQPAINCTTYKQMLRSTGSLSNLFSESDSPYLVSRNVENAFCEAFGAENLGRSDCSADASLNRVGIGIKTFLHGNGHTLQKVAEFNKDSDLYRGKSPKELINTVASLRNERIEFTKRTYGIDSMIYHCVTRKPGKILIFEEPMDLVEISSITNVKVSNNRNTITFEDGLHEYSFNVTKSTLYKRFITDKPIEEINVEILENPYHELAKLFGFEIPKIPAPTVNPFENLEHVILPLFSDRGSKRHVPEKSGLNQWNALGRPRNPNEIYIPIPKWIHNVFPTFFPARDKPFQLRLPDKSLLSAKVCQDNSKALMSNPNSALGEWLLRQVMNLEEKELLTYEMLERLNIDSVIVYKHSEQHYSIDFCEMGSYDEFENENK
As to the kind of experiment: cell_activity.

“GCNGC (double strand) [pCJ791 plasmid GCNGC sites, M.Bli1904II-methylated]” displayed an activity (transformants per ug DNA) (methylated by M.Bli1904II at GCNGC (C5-cytosine type, position not stated), methylated plasmid not restricted in SJ1904, 7.2e3 in deletion strain MDT269) of 16000. “GCNGC (double strand) [pCJ791 plasmid GCNGC sites, unmethylated]”: the activity (transformants per ug DNA) (restriction of unmethylated plasmid in SJ1904, 6.4e3 in Bli1904II deletion strain MDT269, site inferred from cognate methylase) was 17.
